Reference: doi:10.1101/2023.01.24.525315 (bioRxiv, 2023)

Tests used:
[1] = molecular target: Fly Caf1 wild-type (fly (Drosophila melanogaster), UniProt Q24572 1-430); assay: pull-down
[2] = molecular target: Caf1 H3 binding pocket mutant (E235Q/D252K/E279Q) (fly (Drosophila melanogaster), UniProt Q24572 1-430, E235Q | D252K | E279Q); assay: pull-down
Chain of Caf1 H3 binding pocket mutant (E235Q/D252K/E279Q) (Q24572 whole entry E235Q/D252K/E279Q): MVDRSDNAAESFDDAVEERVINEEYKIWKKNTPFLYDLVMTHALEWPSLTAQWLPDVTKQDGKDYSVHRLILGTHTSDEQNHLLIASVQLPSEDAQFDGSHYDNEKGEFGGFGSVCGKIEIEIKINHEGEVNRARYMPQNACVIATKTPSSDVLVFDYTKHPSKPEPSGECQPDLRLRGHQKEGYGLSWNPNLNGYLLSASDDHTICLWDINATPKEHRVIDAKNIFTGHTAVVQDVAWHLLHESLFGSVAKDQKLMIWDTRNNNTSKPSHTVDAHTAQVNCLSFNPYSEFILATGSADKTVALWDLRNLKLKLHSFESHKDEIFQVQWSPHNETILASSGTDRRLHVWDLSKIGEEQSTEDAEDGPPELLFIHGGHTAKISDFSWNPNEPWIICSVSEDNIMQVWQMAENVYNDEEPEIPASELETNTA

Chain of Fly Caf1 wild-type (Q24572 whole entry): as the sequence (Q24572 whole entry E235Q/D252K/E279Q) above, with Q235E, K252D, Q279E counted along it

AKLQPLSEKEKKLVRQFNTFLVRNFEKIRRCKAKR (domain or fragment, fly (Drosophila melanogaster), UniProt Q9VW15 1582-1616, looked up) [GST-CBM (Caf1-binding-motif, Ash1 1,582-1,616)]
binding result [1]: binds | binding result [2]: binds
